The values that follow come from doi:10.1101/2024.07.11.602925.

The target in the experiment is His-tagged PTB domain of RABGAP1. Description: ITC.

“WT APP tail peptide, starting from the MQQ sequence at position 677 (from UniProt P05067-4 677-695)” displayed a Kd of 61 µM and a stoichiometry N of 1.
